Measurements reported in a protein production outcome set (Wang et al. 2014).

Experiment: label from the status in PepcDB records

Sequence | protein production
MLTTRLLISQRGRIAMKQVHLLTPVAGQLVPLESVHDPVFSQGMMGQGFGIEPTDGQVVAPISGKVTMVAASLHAIGFTGNNGLEVLVHLGIDTVELADRPPFKVNVQVGDTVEAGEKVAMMDLAAITSANKDTTVIMAVTNTADMVTKLTPELGEVRAGVVGAVVELKEHVAEASVVKGKGGKYDELATQIIAQVGGPVNVKSVIHCITRVRFYLKDEGQANDEAIRNLKGVIDVAKAGGQYQVVIGPAVTDVYDAIVGQLGAGFGDADASAVAMEKEANRLAWQKMTPWQKVKHGFSSLIGVITGSMIPVIGLLAASGILKGILSLLKNFNLVSATTPTYVIINAMGDSVFYFLPIFVGFTAAKKLGADPVIMGIIGGVLTYPAIVGMATTGKVTGHLLGMAINANFFGIPVHVASYTYSIFPMIAGAWLASKLEPWLKRVIPTVLRMIFVPLFEVVIISGAIIIILGPIITALSGALAAGIVAIYKLSPAISGLIIGGFYQVLVIFGLHWAIIPIVVNDITTTGHSYLNAIVSATMVAQGGAVLAIALKSKFANIKELAWPATISAFCGVTEPAMYGINLKYGRAFITASIGGAVGGFLTGLFNVNMWGFAGSLIGVTSFINPKGLDFSFYGFLIASAIDLIVAFTLTWMFGFSDNDVKNVKKAPEKKHLGQQVAN | failed
MLTVEPSEIQLTPGPILSLYLDLAGHLNWHIRSNLYLRGAEPRLDQKDPAAAAILELSLRLGSAPGGSVSCCWVTVSPGRMSVIDHVRDMAAAGLHSNVRLLSSLLLTMSNNNPELFSPSQKYQLLVYHADSLFHDKEYRNAVSKYTMALQQKKALSKTSKCLPSEIEVKYKMAECYTMLKLDKDAIAILDGIPSRQRTPKINMMLANLYKKAGQERPSVTSYKEVLRQCPLALDAILGLLSLSVKGAEVASMTMNVIQTVPNLDWLSVWIKAYAFVHTGDNSRAINTICSLEKKSLLRDNVDLLGSLADLYFRAGDNKNSVLKFEQAQMLDPYLIKGMDVYGYLLAREGRLEDVENLGCRLFNISDQHAEPWVVSGCHSFYSKRYSRALYLGAKAIQLNSNSVQALLLKGAALRNMGRVQEAIIHFREAIRLAPCRLDCYEGLIECYLASNSIREAMVMANNVYKTLGANAQTLTLLATVCLEDPVTQEKAKTLLDKALAQRPDYVKAVVKKAELLSREQKYEDGIALLRNALANQSDCVLHRILGDFLVSVNEYQEAMDQYSIALSLDPNDQKSLEGMQKMEKEGSPTDATQEDDVDDMEGSGEEGDLEGSDSEAAQWADQEQWFGMQ | failed
MLTVGILGGGQLGWMTILEGRKLGFKFHVLEDKENAPACRVADRCFRTGQISEFVDSCDIITYEFEHIKDEVLEKCESKLIPNPQALYVKKSRIREKLFLKKHGFPVPEFLVIKRDEIIDALKSFKLPVVIKAEKLGYDGKGQYRIKKLEDANQVVKNHDKEESFIIEEFVKFEAEISCIGVRDREGKTYFYPQPFNKHEEGILIYNYVPYAKLKEAEEITKRLMELLDIVGVFTVEFFLLKDGRVLINEFAPRVHNTGHWTLDGAYTSQFENLLRAITEMPLGSTELKLPSGMVNILGKSYEEIPLKEILSVEGAKLYWYGKEKKPRRKVGHVNVVGRSKEEVVEKVERVFTLLKGSREKLPAP | not failed
MLVLILLSSSLAIFAIINLSYSLGDAKAINASGSLRMQSYRLMFYANSGSEAAQEKITEFENTLHSEALHPSKSWLSPKKIAAQYQLVIDKWLVMKYYIEQENSRDYAASLKDFVDTIDLLVLEMEHHAAFKLRLLAASQIFGLGLMLSIAFLAVRFTKRKVVVPLQQLMESANTISKGNFEIEMPETEYIELTALTDALQKTARELATLYGNLESQVAEKTLALTRANNELAFLYDTLLTLNAKKLDYKALKAALNQLKDYESIDYLRLIIQYPEQELEMIEANGGWPESADNSTRFPLQFEQANLGYLELISAQDINTPLFKNFAIMLTRSIVIHNATEQRQQLALMEERGVIARELHDSLGQVLSFLKIQISLLRKNLDHSCRSPAVEVQLTEINEGVSTAYVQLRELLSTFRLTIKEPNLKNAMEAMLEQLRANTDIKIHLDYKLSPQWLEAKQHIHILQITREATLNAIKHANASHINIRCYKDDRGMVNISVSDNGVGIGHIKERDQHFGIGIMHERASKLDGEVVFSSNDTHTNSTATTEQRHQENPDSPLESHNTSNLSQGTIVTLIFPSQQEPTHG | failed
MLVLSYILLFASALFAWNMGSHYSGAVMGMAYGSKSLTIRQATVIAATFAFLGTITASSGVVHTYAFSLVGTTTIRQLTAALLGASVAILISTILKLPASTIQVYTFSLLFVGLASNIKLMYGGIEIVLSMWILMPLAAMLLSYLLAPKLVSKLADDSRKLKIIIIGSSVFSSFTLGSNDVSSAISPLVKVGILTGIVPYVFGGFFIGLGLITWGQRLIRRVGTEVVKTNAPLAAAAQLTEAIVIISGNLVGYNASINQTIIMSIYGAKRSMKSHVVTPMIFRSILLNWTVSSLISAVFGLFFLFILNLYI | failed
MLVSIILVNYNGADILPDCLNSIDKFISKDNCEILLVDNASQDNSYELVAQDFPDVKIVRLPKNYGFGAGNNAGAKIAKGKFLLLLNTDTILTTNILPHLIDLMRENPDVGIIGTKLVFPDETFQISFAYTIGIKGEYKSRKLHEYAEDKSKLNSLEQEFNTIKEVDIVVGAALFIRADLFHSVGGFDEKFFIYFEDADLCRRVQNQGYKILYTPQVSLIHIRGHSMKKNLEHHHHHH | failed
MLWFLTCVAALVGGYFIYGAFVEKVFGINEKRQTPAHTKTDGVDYVPMSTPKVYLVQLLNIAGVGPIFGPIMGALYGPAAMLWIVVGCIFAGAVHDYFSGMLSIRNGGASVPSITGRYLGNGAKHFMNIFAIVLLLLVGVVFVSAPAGMITNLINQQTDFTVSMTTMVVIIFAYYILATIVPVDKIIGRFYPLFGALLIFMSVGLMTAIAFSSEHQVLGGFEISDMVKNLNPNDMPLWPALFITIACGAISGFHATQSPLMARCMENEKNGRFVFYGAMIGEGIIALIWCTVALSFFGSLEALSEAVKNGGPGNVVYGASFGLLGVFGGVIAFLGVVILPITSGDTAFRSSRLILAEYFNMEQKTLRNRLLMAVPLFVIGAVLTQVDFGIIWRYFGFANQATAVMMLWTATAYLMRHNKLHWICTVPALFMTTVCISFILNSSTLGFGLPMQISTIAGVLASLGALAYVAKVSKGKGETDLADEEKPQGVTKTA | failed
MLWGMETAVRPEPAPSPLREHLAAGLKGLHPAYFALVMATGIVSIVSDVLGLREAAALLFWLNVPAYAVLWLLVAARALRYPRALAADLASHQRGPGFFTSVAATCVLGLQLVLLRGDAAAALALWWVGMLLWCACTYAVFVALAVRDPKPTLGEGINGGWLVAVVATQSVVVLGTRALVPRYPGSEAVLFFLASLWLCGGMLYVWMISLIFYRYMFFRFSPSDLMPPYWINMGAVAISVVAGTSLAALAPGSAFLGALLPFVKGLTLMFWATATWWIPMLVLLGIWRHGGPSRIRIAYDPLYWGLVFPLGMYALCTYRLGELFAMPVLPWVARTFATVALAAWLLTAFGLAGRFLQLVVLAVRSLHAERGAAGPQPGSLERMARRS | failed
MLWHVFYGRGRMLLSNHAQGRNFRPIFVMSDPISWTAEATERLKEIPFFVRPAARKKIENFAREAGITEITETVYEQAKQKFN | failed
MLYFDHWTKVPADIWRWPNFSPEEIACRSTGKVGIDPQAMDKLQALRDRLGAPLMLNSAYRSPEHNRAEGGAPASEHLKARAFDVSMINHDPAEFEAAARAVGFTGFGFYRRNNFIHVDIGPAREWGNRWFDRVPHGAPLRPAPRFSPPPKLRPETLAEDRGARGTALGAGGGVALIGALGNVVGDLNPTAQAIAFGGAIVLAASLAYLIRDKIREWA | failed
MLYIIGLGLYDEKDITVRGLEAVKSCDLVFLEHYTAILQCDVAKLEEFYGKKVIIGDRDLVETEADQILEPAKTKNVALLVVGDVYGATTHSDIFVRCQKMGIEVKVIHNASIMNAIGCSGLQLYRFGQTVSVCFWSEHWRPSSYYPKIKINRDNNMHTLVLLDIKVKERSEENIIKGRDIFEPPRYMTINQCIEQLLEVEKEQHLGVYDEDTMVVGMARVACADQKIVYGKMKDLLHYDFGAPMHCLLIPAPQVDDPELDHLEYFKYKPE | not failed
MLYKSVTESFNEFIIDRSDATCIRCKVCVRQCAYEVHAYEAKADALTEDNTLCIGCRRCSALCPTGAITIRSNEEVFKRNESWSNAHIRNLYAQADTGGILLAAMGNPAKYPIYWDHMLLDASQVTNPSIDPLREPMELRTYLGKKPHSIEVVRDEQTGKPKLATKLTPQIKMEYPFIFSAMSYGALNLNAHKAMAMAAKELGTLYNTGEGGLHRDLYQYGSNVMVQVASGRFGVSEAYLNAGVAIEIKVGQGAKPGIGGHLPGEKVNDQISETRMIPAGADAISPAPHHDIYSIEDLRQLIFALKEATNYTKPVSVKIAAVHHVAAIASGVARAGADIITIDGFRGGTGAAPQVIRDNVGIPMELALAAVDARLRDEGIRNQVSIVVGGGVRSSGDAIKAIALGADAINMGTSTLLALGCTLCQRCYTGKCPWGITTNNPYLAKRLNPELGAERLVNLVHAWGHEMKEILGGMGLNALESLRGNRYKLRALGLTEKDMNILGVMPAGE | failed
MMADEEEEVKPILQKLQELVDQLYSFRDCYFETHSVEDAGRKQQDVRKEMEKTLQQMEEVVGSVQGKAQVLMLTGKALNVTPDYSPKAEELLSKAVKLEPELVEAWNQLGEVYWKKGDVAAAHTCFSGALTHCRNKVSLQNLSMVLRQLRTDTEDEHSHHVMDSVRQAKLAVQMDVHDGRSWYILGNSYLSLYFSTGQNPKISQQALSAYAQAEKVDRKASSNPDLHLNRATLHKYEESYGEALEGFSRAAALDPAWPEPRQREQQLLEFLDRLTSLLESKGKVKTKKLQSMLGSLRPAHLGPCSDGHYQSASGQKVTLELKPLSTLQPGVNSGAVILGKVVFSLTTEEKVPFTFGLVDSDGPCYAVMVYNIVQSWGVLIGDSVAIPEPNLRLHRIQHKGKDYSFSSVRVETPLLLVVNGKPQGSSSQAVATVASRPQCE | failed
MMAERPQPVAAPEEDEIDLGQLLGQIWHGKLWIGSATLAAGMLGLAWLANTAPTYRADTLLQLEEKASPLALPTALSELAGGEARSATEVEILRSRLVLGEAVAAFHLDWEAKPLRAPLVGQAVASGVLPLPEVEGLIRYDRGDSRIRLDLLEVPPEWVEEPILLTAMGEGQFALLLPDGREETGEVGRPLAVPDRGFGLRIGALEGVRGRQFVIRQLDETGAIGALRDRLTVAERGKQSSILEVGLTGRDPAEVQRTLGGIAEAYLRQNMTRSAAEAESSLEFIEGQLPEAQKAVRAAEDRLNAYRQAQQAIDLGFEGQSLLTQISAIETELRQLADQEEEIANRYTSNHPTYQRLLAMRGRLEERLAALRKEVSNLPETQREVFNFTRDLEVAQEVYLQLLNRAQELRVVKASTIGNVRIVDGARTAPEPVAPRRGRTLALALLLGALSGTGLVLGRAWLRRSVRGPEELDRLGLPVFATVLFAPAAVGNRKGRGLLPILALSDPNSATVEGIRSLRTSLHFGMLDAGSRSIALTSSAPAAGKSFTSVNLAVVAAQAGQSVCLIDADLRRGHLRRYFAVAKGTPGLAEYLAGEAELDELLRPGPVEGLAFLSTGQLPPNPSELLMRPRLAELVAELDRRFDLSIFDAPPVLAVTDPVVIGRAVGATIAVVRHDVTGLGEVEALIRQLQGAGVKPAGAVLNAYRPQRGSGRYGYGYGYRYRYDTGYRPQSGD | failed
MMAKIDVELKKLHQILVDRDYFYQVPDYQRPYVWDKDHLGALIDDLVGSYTNNREDEYFCGSIVIVENQKDKRWDVVDGQQRLTSFIILACTILRLYKHSLGQESKDFIEDSIYDRYDKEKERLKFLTAQNYNSIFENTVLNHLEFEDNIKKSELNKKFEENTYLRNAYYFKELLNESVENGSISDIDDFVKWFYEHIVLTRIICFEQDSAMQIFQVLNDRGQPLSPIDILKSSLMQEIKQDSEKRKDFITTWDKLVEACKSVEGVDIDLEDFFNMYLEYADPSTSKKRADKGLKKVFKDSKKDACGFIYEISEFMKAYTALLKKQDRYVYLLRYLPSRYWASILTTALYVKYPDFDALKKLLVSYYYQTWIAGGTITRIKQTSINIIKNVKSNKSVETIKELILNSIDSYNTFDQYLYNLWDSSSVYHSKWVRPVLALANYFMADEEKPHFIAMDAETQVEHILPQTPKRGSQWNADFDKEKREEWVNNIANLTLLKRKKNAHALNGDFDEKRKIYGGKDTSKVISCYDITKELYSNYRKWNEKSLQERYKSLYNTITPVLHIEGQEDDFEDDFDLE | failed
